Laboratory results: PMC3531375

Biological target: MAP1B light chain 1, C-terminal myc-tag, expressed in COS7 cells (UniProt P15205)
Sequence of UniProt P15205 (P15205 2210-2459): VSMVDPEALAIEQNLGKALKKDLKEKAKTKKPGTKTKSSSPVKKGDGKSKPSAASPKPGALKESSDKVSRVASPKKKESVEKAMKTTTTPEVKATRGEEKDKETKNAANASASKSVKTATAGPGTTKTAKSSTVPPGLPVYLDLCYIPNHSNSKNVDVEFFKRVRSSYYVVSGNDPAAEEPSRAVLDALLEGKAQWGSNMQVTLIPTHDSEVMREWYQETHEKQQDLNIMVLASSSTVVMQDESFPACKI

**Q.** Which Rac1-GTP pulled down by GST-PAK1 CRIB domain from lysates of COS7 cells co-expressing Tiam1 (C1199 HA) and myc-tagged LC1, relative to total Rac1 does the source give for “N-terminal truncated Tiam1 (C1199), C-terminal HA-tag (domain or fragment)” here?
**A.** 2 fold
